Reference: patent publication US20190345534

test system: GzmB peptide substrate AIEFDSGc on PEG-coated iron oxide nanoparticles (GzmB-sensing synthetic biomarker)

Chain of MASP2 (Biomatik) (O00187 16-686): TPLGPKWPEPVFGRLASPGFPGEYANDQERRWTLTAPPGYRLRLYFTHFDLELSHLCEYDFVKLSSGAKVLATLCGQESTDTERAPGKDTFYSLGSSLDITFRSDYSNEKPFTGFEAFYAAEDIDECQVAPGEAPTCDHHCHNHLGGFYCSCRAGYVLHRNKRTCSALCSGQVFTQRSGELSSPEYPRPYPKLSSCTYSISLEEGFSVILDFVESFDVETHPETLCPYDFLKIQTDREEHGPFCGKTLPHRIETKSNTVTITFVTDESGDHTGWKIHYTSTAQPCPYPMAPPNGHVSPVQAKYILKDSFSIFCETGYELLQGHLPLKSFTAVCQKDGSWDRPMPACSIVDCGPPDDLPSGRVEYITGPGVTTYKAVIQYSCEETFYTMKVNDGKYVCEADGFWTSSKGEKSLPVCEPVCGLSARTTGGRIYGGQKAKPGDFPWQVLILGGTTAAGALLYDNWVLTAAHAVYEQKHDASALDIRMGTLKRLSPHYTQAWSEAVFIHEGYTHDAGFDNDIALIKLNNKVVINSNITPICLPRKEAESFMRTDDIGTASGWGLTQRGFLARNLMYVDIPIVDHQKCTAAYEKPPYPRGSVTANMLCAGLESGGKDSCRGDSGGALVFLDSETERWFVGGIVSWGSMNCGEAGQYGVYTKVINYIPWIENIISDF
Chain of Factor I (Sigma) (P05156 19-583): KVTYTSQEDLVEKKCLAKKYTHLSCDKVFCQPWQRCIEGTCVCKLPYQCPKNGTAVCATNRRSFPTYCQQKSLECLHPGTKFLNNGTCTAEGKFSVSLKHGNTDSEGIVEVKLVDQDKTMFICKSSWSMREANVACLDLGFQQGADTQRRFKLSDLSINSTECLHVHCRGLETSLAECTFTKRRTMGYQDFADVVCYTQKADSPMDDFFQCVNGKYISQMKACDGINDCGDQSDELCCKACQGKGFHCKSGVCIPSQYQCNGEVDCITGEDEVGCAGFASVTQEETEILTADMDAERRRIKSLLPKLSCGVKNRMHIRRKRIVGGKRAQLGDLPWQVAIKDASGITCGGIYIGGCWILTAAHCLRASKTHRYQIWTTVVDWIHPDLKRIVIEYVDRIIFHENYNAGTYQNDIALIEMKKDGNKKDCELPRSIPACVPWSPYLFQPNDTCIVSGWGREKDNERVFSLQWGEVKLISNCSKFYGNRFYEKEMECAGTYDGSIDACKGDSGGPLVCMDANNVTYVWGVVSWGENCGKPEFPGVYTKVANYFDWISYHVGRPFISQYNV
Chain of Factor D (Sigma) (P00746 26-253): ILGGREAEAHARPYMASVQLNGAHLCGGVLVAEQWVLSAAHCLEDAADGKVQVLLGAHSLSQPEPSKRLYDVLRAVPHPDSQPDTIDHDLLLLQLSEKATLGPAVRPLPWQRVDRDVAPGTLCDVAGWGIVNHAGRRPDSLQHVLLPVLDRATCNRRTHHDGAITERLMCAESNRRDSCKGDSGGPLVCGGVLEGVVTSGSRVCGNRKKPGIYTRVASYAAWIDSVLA

Factor I (Sigma) was tested. Which “fluorescent intensity (in vitro protease cleavage assay)” value (from here on “fluorescent intensity”) did it give?
The value was “Increases in fluorescent intensity were observed only in samples containing recombinant GzmB”.

Factor D (Sigma) was tested. Which “fluorescent intensity” value did it give?
Its value is “Increases in fluorescent intensity were observed only in samples containing recombinant GzmB”.

For human thrombin (HaemTech), which “fluorescent intensity” value is on record?
The value was “Increases in fluorescent intensity were observed only in samples containing recombinant GzmB”.

Which “fluorescent intensity” value does the source give for MASP2 (Biomatik) here?
The value was “Increases in fluorescent intensity were observed only in samples containing recombinant GzmB”.

With mouse thrombin (HaemTech) as the substance, how does the “fluorescent intensity” value read?
Its value is “Increases in fluorescent intensity were observed only in samples containing recombinant GzmB”.
